Consider 2 molecules from patent US20170051068A1 (Janssen / Centocor, published 2017).

The target in one assay is T1, cyno BCMA on HEK cells (cyno, UniProt Q02223 1-184 (human entry)).
T1 construct: also called HEK-expressing cyno BCMA
Briefly: flow cytometry, HEK cells expressing cyno BCMA. For orientation: A flow cytometer gives signals particle by particle.

Assay [1] addresses T2, Fc-fusion cyno BCMA (in-house; Cat# BCMW6.001) (cyno, UniProt Q02223 1-54 (human entry)).
T2 construct: also called Fc-BCMA Cy; cyno Fc-BCMA; not shown: Fc part
Briefly: SPR, Fc-BCMA, two-state model, step 1 (koff1); first step (koff1). (In general: In SPR one partner is held on a chip, and binding of the other changes the refractive index at the surface.)

The target in assay [2] is T2, Fc-fusion cyno BCMA (in-house; Cat# …). Nature of the assay: SPR, Fc-BCMA, two-state model, step 2.
Assay [3] has the same target. Briefly: SPR, Fc-BCMA, two-state model, first complex.
The target of assay [4] is T3, Recombinant mouse BCMA-Fc fusion protein (R&D Systems catalog #593-BC-050) (mouse, UniProt O88472 1-49).
T3 construct: also called mBCMA-Fc; Fc-fusion mouse BCMA; not shown: Fc part of the bought fusion protein
T3 chain: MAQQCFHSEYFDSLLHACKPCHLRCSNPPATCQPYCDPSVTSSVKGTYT
Briefly: SPR (Biacore T200), biotinylated Fc-BCMA on streptavidin chip. The protocol: (§1) The binding affinities of anti-BCMA×CD3 bispecific antibody (BCMB72) with Fc-fusion BCMA proteins (human, cyno and mouse) were measured by Surface Plasmon Resonance (SPR) using a Biacore T200 system (GE Healthcare, NJ).
(§2) No protein was immobilized on flow-cell 1 and was used as a reference surface. Binding kinetics experiments were performed at 25° C. in running buffer (PBS pH 7.4, 0.005% P20, 3 mM EDTA). BCMB72 was prepared in running buffer starting from 100 nM to 0.16 nM at 5-fold dilutions. These solutions were injected for 5 min (association phase) at 50 μL/min and the dissociation was monitored for 15 min by flowing running buffer. The chip surface was regenerated by short injections of glycine (pH 1.5) and running buffer at 100 μL/min. Binding kinetics analysis of BCMB72 interactions with Fc-BCMA was performed by double referencing of the data by subtracting the curves generated by buffer injection from the reference-subtracted curves for analyte injections. Global kinetics fitting of the sensorgrams was performed using a Two-State binding Model using Biacore T200 Evaluation Software (GE Healthcare, NJ). The binding affinity results from the Two-State binding model for different BCMA species are reported as First Complex (KD1) and Final Complex (KD) (FIG. 5).

For assay [5], the target named is T2, Fc-fusion cyno BCMA (in-house; Cat# …). The description is as above. The protocol: as §1, §2
For assay [6], the target named is T3, Recombinant mouse BCMA-Fc fusion …. Nature of the assay: SPR (Biacore T200), biotinylated Fc-BCMA Mouse on a streptavidin chip, BCMB72 as analyte, two-state binding model, Final Complex; column RANGE prints 62.0 - 82.9. The protocol:
as §1, §2

Assay [7] addresses T2, Fc-fusion cyno BCMA (in-house; Cat# …). Nature of the assay: SPR, Fc-BCMA, two-state model, step 1 (kon1); first step (kon1).
For assay [8] the target is unchanged. Nature of the assay: SPR (Biacore T200), biotinylated Fc-BCMA Cyno on a streptavidin chip, BCMB72 as analyte, two-state binding model, Final Complex; column RANGE prints 5.36 - 7.27. The procedure: as §1, §2
The target is the same in assay [9]. Briefly: SPR, Fc-BCMA, two-state model, Final KD; Final complex KD, two-state model.
In assay [10] the target is T4, Soluble human BCMA ECD (AB Biosciences, Catalog no. P011Xp) (human, UniProt Q02223 1-54).
T4 sequence: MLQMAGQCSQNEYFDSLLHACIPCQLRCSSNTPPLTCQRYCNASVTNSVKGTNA
Briefly: cell-based or functional assay.

T1 sequence (Q02223 other isoform, or with tags, fused parts or gaps): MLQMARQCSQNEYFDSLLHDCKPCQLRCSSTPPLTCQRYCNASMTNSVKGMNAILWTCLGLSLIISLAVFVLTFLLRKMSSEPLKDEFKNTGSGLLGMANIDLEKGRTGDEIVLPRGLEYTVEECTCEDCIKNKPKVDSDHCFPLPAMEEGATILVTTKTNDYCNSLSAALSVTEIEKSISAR

B1: BCMB69 (antibody, V domains shown)
VH: QLQLQESGPGLVKPSETLSLTCTVSGGSISSGSYFWGWIRQPPGKGLEWIGSIYYSGITYYNPSLKSRVTISVDTSKNQFSLKLSSVTAADTAVYYCARHDGAVAGLFDYWGQGTLVTVSS
VL: SYVLTQPPSVSVAPGQTARITCGGNNIGSKSVHWYQQPPGQAPVVVVYDDSDRPSGIPERFSGSNSGNTATLTISRVEAGDEAVYYCQVWDSSSDHVVFGGGTKLTVLG
notes: also called BCBM69; antibody derived from the M2 hybridoma
In the case of B1, the binding result with cyno BCMA on HEK cells was “binds”.

B2: BCMB72 (BCMA×CD3 bispecific antibody, BCMB69 × CD3B219) (bispecific antibody, human IgG4 S228P, lambda, F234A L235A)
heavy 1: EVQLVESGGGLVQPGGSLRLSCAASGFTFNTYAMNWVRQAPGKGLEWVARIRSKYNNYATYYAASVKGRFTISRDDSKNSLYLQMNSLKTEDTAVYYCARHGNFGNSYVSWFAYWGQGTLVTVSSASTKGPSVFPLAPCSRSTSESTAALGCLVKDYFPEPVTVSWNSGALTSGVHTFPAVLQSSGLYSLSSVVTVPSSSLGTKTYTCNVDHKPSNTKVDKRVESKYGPPCPPCPAPEAAGGPSVFLFPPKPKDTLMISRTPEVTCVVVDVSQEDPEVQFNWYVDGVEVHNAKTKPREEQFNSTYRVVSVLTVLHQDWLNGKEYKCKVSNKGLPSSIEKTISKAKGQPREPQVYTLPPSQEEMTKNQVSLTCLVKGFYPSDIAVEWESNGQPENNYKTTPPVLDSDGSFLLYSKLTVDKSRWQEGNVFSCSVMHEALHNHYTQKSLSLSLGK
light 1: QTVVTQEPSLTVSPGGTVTLTCRSSTGAVTTSNYANWVQQKPGQAPRGLIGGTNKRAPGTPARFSGSLLGGKAALTLSGVQPEDEAEYYCALWYSNLWVFGGGTKLTVLGQPKAAPSVTLFPPSSEELQANKATLVCLISDFYPGAVTVAWKADSSPVKAGVETTTPSKQSNNKYAASSYLSLTPEQWKSHRSYSCQVTHEGSTVEKTVAPTECS
heavy 2: not shown
light 2: SYVLTQPPSVSVAPGQTARITCGGNNIGSKSVHWYQQPPGQAPVVVVYDDSDRPSGIPERFSGSNSGNTATLTISRVEAGDEAVYYCQVWDSSSDHVVFGGGTKLTVLGQPKAAPSVTLFPPSSEELQANKATLVCLISDFYPGAVTVAWKGDSSPVKAGVETTTPSKQSNNKYAASSYLSLTPEQWKSHRSYSCQVTHEGSTVEKTVAPTECS
notes: IgG4 made by Fab arm exchange; first heavy/light pair is the CD3B219 arm, second pair the BCMB69 arm; also called B69 × B219; BCMB72.004
Turning to B2, in [1], the koff turned out to be 0.00483 s⁻¹. Besides, the koff2 in [2] is 0.000785 s⁻¹. For the same molecule, the kon2 in assay [2] was found to be 0.00106 s⁻¹. This molecule showed a KD1 in assay [3] of 3.87 nM. In addition, the “fold of average KD compared to human BCMA” value was roughly 402 fold in [4] and roughly 36 fold in [5]. Also, the Kd amounted to 72.4 nM in [6], 6.5 nM in assay [8] and 1.65 nM in [9]. Further, the on-rate (kon) in [7] came to 1.26e+06 M⁻¹ s⁻¹. In [10], the “Change of EC50 of cytotoxicity on H929 cells in the presence of soluble BCMA ECD” value came out at 2 fold.

In general, koff refers to a measure of how fast the partners let go of each other. The term Kd denotes the constant that tells how readily two partners part at equilibrium. One may read the kon as the second-order rate constant of association. Read a low kon as slower complex formation.
